Ratio to parent data for one molecule are collected here from paper PMC11261448.

This assay concerns the target T1, TOP-2 [R828C]::3xFLAG, Q23670.
T1 chain: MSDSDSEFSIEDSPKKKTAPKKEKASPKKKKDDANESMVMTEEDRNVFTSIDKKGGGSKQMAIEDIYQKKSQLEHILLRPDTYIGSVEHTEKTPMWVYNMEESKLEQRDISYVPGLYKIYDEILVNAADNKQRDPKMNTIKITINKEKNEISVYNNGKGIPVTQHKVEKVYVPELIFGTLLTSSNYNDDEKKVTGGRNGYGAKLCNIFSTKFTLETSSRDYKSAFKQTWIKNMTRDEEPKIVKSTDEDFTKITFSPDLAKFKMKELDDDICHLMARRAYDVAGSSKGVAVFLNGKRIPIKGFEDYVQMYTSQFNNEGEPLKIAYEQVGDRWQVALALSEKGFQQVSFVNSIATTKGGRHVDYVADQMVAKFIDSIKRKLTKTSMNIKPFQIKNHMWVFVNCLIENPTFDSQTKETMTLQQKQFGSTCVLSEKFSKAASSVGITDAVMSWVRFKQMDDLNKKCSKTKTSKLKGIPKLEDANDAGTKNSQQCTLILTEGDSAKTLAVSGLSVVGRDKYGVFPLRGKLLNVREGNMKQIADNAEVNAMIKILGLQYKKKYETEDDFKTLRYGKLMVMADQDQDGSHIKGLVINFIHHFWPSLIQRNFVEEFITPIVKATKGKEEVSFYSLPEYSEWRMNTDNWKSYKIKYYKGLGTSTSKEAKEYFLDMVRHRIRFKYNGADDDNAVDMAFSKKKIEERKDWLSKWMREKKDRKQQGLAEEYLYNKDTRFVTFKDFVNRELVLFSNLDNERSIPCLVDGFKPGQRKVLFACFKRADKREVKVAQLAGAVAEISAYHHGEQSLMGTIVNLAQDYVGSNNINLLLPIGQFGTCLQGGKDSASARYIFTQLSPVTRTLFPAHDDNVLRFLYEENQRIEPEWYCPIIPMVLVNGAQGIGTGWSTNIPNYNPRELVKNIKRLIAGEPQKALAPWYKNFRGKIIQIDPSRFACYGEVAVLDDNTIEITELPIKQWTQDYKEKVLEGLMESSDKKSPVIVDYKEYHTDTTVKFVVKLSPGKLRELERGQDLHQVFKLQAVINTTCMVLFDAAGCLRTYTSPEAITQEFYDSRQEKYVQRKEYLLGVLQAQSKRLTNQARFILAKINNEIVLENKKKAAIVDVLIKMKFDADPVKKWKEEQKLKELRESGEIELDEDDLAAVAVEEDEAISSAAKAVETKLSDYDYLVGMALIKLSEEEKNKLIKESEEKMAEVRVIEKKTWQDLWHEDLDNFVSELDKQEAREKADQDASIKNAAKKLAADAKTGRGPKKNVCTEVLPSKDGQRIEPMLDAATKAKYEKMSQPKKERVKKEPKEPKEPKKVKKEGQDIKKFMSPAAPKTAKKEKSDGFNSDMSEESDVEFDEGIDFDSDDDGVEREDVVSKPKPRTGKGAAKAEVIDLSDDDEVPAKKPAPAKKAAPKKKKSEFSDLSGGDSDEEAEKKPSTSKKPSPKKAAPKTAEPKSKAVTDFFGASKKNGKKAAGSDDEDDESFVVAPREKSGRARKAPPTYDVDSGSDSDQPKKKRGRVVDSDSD
Put plainly: co-immunoprecipitation (anti-FLAG magnetic agarose beads) with anti-RFP immunoblot, band quantification. The conditions noted are these: chain shown with the change;; parent: est. 1.0; read off a plot. (A western blot detects proteins with antibodies after separation by electrophoresis.)

B1: m1; m2 TDPT-1:G117R; TOP-2:R828C (protein)
chain: MSNSDDEIQEIEAKRQKMSQEDSEVEIEILDEPEQGKLKNSSMSDEQKLHEFAIITATDEAFAQSILQDVDWDLKKALDVFYGSEAFAEARSAAVMGASSSMASSGAAVMTAEDLKRFEVSVMSWNIDGLDGRSLLTRMKAVAHIVKNVNPDILFLQEVVDRDLAPIDKLQSLYKIYYSNKGCQYYTAILVSKMFDVEKHDVIHFQNSGMYRTLQILEGSIGGLKVFLLNTHLESTREHRPQRCAQFGFCMDKVREIIAQNPGALVFFGGDLNLRDEEVSRVPDGVKDAWEAAGSDNKTKFTWDTFKNDNKQGFHGAKMRFDRLYWSGPLDKVKFTLEGRQRIRSCLCFPSDHWAINATFFA
Turning to B1, the ratio to parent was found to be 0.33.
